T1: HTRA4, P83105
T1 sequence (P83105 378-476, limits assumed, looked up): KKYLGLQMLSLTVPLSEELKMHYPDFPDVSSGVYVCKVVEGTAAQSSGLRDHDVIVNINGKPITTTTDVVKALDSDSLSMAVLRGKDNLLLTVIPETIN

T2: APBA2_2, Q99767
T2 sequence (Q99767 654-744, limits assumed, looked up): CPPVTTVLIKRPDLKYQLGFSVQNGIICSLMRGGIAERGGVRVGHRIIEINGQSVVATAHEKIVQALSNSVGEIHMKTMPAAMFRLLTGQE

T3: LIN7C, Q9NUP9
T3 sequence (Q9NUP9 88-185, limits assumed, looked up): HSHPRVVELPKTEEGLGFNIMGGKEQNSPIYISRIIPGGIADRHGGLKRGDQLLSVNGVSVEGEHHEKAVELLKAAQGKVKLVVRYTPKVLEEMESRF

T4: PDZRN3_1, Q9UPQ7
T4 sequence (Q9UPQ7 244-349, limits assumed, looked up): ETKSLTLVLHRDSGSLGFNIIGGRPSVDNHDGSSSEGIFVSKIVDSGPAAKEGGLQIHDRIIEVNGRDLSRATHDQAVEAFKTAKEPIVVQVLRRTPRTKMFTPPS

T5: ARHGAP21, Q5T5U3
T5 sequence (Q5T5U3 45-169, limits assumed, looked up): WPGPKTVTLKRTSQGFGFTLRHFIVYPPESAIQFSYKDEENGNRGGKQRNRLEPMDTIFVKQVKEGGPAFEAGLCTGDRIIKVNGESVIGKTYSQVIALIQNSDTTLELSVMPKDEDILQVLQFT

T6: LNX2_2, Q8N448
T6 sequence (Q8N448 334-432, limits assumed, looked up): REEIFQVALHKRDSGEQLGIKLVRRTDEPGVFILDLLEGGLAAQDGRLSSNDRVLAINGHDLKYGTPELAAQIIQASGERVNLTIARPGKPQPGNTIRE


Key:
Assay in all cases: holdup assay
Design in all cases: key: below the threshold = too weak to quantify, mostly under pKd 3.1 to 4
Conditions in all cases: plain residues with an end cap or a label only (N-terminal biotin on a linker: ado-ado)
HTRA4, P83105 = molecular target: T1, HTRA4, P83105
DLG4_1, P78352 = molecular target: DLG4_1, P78352
Sequence of DLG4_1, P78352 (P78352 62-152): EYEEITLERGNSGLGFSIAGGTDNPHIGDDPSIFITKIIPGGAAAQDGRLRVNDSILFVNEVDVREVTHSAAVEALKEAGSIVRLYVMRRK

APBA2_2, Q99767 = molecular target: T2, APBA2_2, Q99767
DLG4_3, P78352 = molecular target: DLG4_3, P78352
Sequence of DLG4_3, P78352 (P78352 306-403): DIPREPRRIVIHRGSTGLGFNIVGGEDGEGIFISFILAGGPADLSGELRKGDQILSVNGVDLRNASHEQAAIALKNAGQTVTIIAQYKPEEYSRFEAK

PDLIM1, O00151 = molecular target: PDLIM1, O00151
Sequence of PDLIM1, O00151 (O00151 1-87): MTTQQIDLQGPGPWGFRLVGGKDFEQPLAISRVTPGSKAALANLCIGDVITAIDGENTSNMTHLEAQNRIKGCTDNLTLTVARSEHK

GRIP2_4, Q9C0E4 = molecular target: GRIP2_4, Q9C0E4
Sequence of GRIP2_4, Q9C0E4 (Q9C0E4 446-548): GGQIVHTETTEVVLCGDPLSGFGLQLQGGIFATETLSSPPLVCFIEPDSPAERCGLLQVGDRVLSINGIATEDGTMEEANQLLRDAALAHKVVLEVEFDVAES

DLG2_3, Q15700 = molecular target: DLG2_3, Q15700
IL16_3, Q14005 = molecular target: IL16_3, Q14005
Sequence of IL16_3, Q14005 (Q14005 1107-1207): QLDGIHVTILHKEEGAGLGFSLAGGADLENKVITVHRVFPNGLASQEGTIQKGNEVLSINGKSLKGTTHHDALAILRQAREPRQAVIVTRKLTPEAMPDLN

MAGI1_1, Q96QZ7 = molecular target: MAGI1_1, Q96QZ7
Sequence of MAGI1_1, Q96QZ7 (Q96QZ7 1-106): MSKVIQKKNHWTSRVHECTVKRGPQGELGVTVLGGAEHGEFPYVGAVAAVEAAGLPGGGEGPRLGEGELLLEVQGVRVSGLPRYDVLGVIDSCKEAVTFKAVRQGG

DLG1_2, Q12959 = molecular target: DLG1_2, Q12959
Sequence of DLG1_2, Q12959 (Q12959 314-412): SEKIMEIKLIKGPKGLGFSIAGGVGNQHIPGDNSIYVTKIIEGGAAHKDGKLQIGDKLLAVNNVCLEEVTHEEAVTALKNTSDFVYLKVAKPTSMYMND

LIN7C, Q9NUP9 = molecular target: T3, LIN7C, Q9NUP9
PDZRN3_1, Q9UPQ7 = molecular target: T4, PDZRN3_1, Q9UPQ7
LAP2, Q96RT1 = molecular target: LAP2, Q96RT1
Sequence of LAP2, Q96RT1 (Q96RT1 other isoform, or with tags, fused parts or gaps): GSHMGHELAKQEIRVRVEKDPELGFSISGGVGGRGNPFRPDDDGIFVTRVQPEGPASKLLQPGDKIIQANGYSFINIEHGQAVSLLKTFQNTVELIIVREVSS

FRMPD4, Q14CM0 = molecular target: FRMPD4, Q14CM0
Sequence of FRMPD4, Q14CM0 (Q14CM0 67-160): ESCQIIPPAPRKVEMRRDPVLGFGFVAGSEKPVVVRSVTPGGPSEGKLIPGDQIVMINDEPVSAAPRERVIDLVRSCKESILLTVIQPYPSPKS

LNX1_1, Q8TBB1 = molecular target: LNX1_1, Q8TBB1
Sequence of LNX1_1, Q8TBB1 (Q8TBB1 261-371): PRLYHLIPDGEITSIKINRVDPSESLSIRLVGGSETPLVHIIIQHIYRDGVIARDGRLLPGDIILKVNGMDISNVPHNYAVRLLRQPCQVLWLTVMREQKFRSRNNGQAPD

TJP1_2, Q07157 = molecular target: TJP1_2, Q07157
Sequence of TJP1_2, Q07157 (Q07157 181-274): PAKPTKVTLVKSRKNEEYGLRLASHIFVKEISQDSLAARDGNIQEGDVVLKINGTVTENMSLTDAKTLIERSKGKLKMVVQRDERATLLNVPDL

GRASP, Q7Z6J2 = molecular target: GRASP, Q7Z6J2
Sequence of GRASP, Q7Z6J2 (Q7Z6J2 96-193): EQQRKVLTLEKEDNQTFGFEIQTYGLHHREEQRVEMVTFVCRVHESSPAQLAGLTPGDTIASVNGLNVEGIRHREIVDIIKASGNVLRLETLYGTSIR

MAGI2_2, Q86UL8 = molecular target: MAGI2_2, Q86UL8
Sequence of MAGI2_2, Q86UL8 (Q86UL8 410-522): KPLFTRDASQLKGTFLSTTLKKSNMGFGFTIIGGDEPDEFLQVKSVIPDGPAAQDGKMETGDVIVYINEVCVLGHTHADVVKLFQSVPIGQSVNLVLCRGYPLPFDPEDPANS

Inadl_5, Q8NI35 = molecular target: Inadl_5, Q8NI35
Sequence of Inadl_5, Q8NI35 (Q8NI35 673-780): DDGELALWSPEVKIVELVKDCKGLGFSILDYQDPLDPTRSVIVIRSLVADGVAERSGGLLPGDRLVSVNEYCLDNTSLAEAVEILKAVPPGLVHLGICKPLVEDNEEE

GORASP1, Q9BQQ3 = molecular target: GORASP1, Q9BQQ3
Sequence of GORASP1, Q9BQQ3 (Q9BQQ3 1-208): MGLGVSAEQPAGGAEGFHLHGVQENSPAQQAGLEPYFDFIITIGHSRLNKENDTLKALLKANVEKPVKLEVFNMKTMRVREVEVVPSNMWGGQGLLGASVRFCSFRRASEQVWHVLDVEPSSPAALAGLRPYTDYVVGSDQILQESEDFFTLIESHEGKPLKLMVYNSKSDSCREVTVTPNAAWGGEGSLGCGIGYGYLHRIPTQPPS

Inadl_8, Q8NI35 = molecular target: Inadl_8, Q8NI35
Sequence of Inadl_8, Q8NI35 (Q8NI35 1425-1530): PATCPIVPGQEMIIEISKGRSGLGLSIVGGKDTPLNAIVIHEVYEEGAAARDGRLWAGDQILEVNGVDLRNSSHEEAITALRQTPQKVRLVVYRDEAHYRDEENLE

IL16_4, Q14005 = molecular target: IL16_4, Q14005
Sequence of IL16_4, Q14005 (Q14005 1229-1329): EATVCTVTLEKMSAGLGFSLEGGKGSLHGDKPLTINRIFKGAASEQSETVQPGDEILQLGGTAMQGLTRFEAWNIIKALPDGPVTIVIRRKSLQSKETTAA

FRMPD3, Q5JV73 = molecular target: FRMPD3, Q5JV73
Sequence of FRMPD3, Q5JV73 (Q5JV73 12-100): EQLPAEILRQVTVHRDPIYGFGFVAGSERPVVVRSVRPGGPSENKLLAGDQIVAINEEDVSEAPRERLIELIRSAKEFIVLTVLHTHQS

DLG4_2, P78352 = molecular target: DLG4_2, P78352
Sequence of DLG4_2, P78352 (P78352 155-259): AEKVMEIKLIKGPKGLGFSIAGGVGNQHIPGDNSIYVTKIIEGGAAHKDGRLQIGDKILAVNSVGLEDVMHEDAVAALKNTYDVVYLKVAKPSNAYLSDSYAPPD

GOPC, Q9HD26 = molecular target: GOPC, Q9HD26
Inadl_4, Q8NI35 = molecular target: Inadl_4, Q8NI35
Sequence of Inadl_4, Q8NI35 (Q8NI35 547-651): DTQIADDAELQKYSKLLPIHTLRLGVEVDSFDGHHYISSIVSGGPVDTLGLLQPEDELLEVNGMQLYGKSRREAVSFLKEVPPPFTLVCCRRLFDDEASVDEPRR

ARHGAP21, Q5T5U3 = molecular target: T5, ARHGAP21, Q5T5U3
MAGI2_5, Q86UL8 = molecular target: MAGI2_5, Q86UL8
Sequence of MAGI2_5, Q86UL8 (Q86UL8 915-1017): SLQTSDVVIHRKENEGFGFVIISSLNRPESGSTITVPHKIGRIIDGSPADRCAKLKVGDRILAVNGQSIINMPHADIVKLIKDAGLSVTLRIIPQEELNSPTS

HTRA1, Q92743 = molecular target: HTRA1, Q92743
Sequence of HTRA1, Q92743 (Q92743 360-477): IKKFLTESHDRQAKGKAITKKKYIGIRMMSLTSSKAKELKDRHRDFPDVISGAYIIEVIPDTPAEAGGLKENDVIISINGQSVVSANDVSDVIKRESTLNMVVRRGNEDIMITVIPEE

MAGI2_3, Q86UL8 = molecular target: MAGI2_3, Q86UL8
Sequence of MAGI2_3, Q86UL8 (Q86UL8 600-682): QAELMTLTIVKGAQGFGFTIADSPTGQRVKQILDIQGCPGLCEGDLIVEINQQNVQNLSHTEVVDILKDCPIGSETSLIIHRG

LNX2_2, Q8N448 = molecular target: T6, LNX2_2, Q8N448
LDB3, O75112 = molecular target: LDB3, O75112
Sequence of LDB3, O75112 (O75112 1-94): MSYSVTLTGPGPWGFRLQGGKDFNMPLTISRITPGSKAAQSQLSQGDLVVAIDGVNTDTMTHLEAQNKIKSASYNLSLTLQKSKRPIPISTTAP

GRIP2_7, Q9C0E4 = molecular target: GRIP2_7, Q9C0E4
Sequence of GRIP2_7, Q9C0E4 (Q9C0E4 934-1023): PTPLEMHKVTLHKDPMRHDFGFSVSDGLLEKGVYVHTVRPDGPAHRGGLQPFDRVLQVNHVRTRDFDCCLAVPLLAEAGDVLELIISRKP

| Binder | pKd (HTRA4, P83105) | pKd (DLG4_1, P78352) | pKd (APBA2_2, Q99767) | pKd (DLG4_3, P78352) | pKd (PDLIM1, O00151) | pKd (GRIP2_4, Q9C0E4) | pKd (DLG2_3, Q15700) | pKd (IL16_3, Q14005) | pKd (MAGI1_1, Q96QZ7) | pKd (DLG1_2, Q12959) | pKd (LIN7C, Q9NUP9) | pKd (PDZRN3_1, Q9UPQ7) | pKd (LAP2, Q96RT1) | pKd (FRMPD4, Q14CM0) | pKd (LNX1_1, Q8TBB1) | pKd (TJP1_2, Q07157) | pKd (GRASP, Q7Z6J2) | pKd (MAGI2_2, Q86UL8) | pKd (Inadl_5, Q8NI35) | pKd (GORASP1, Q9BQQ3) | further results |
| --- | --- | --- | --- | --- | --- | --- | --- | --- | --- | --- | --- | --- | --- | --- | --- | --- | --- | --- | --- | --- | --- |
| ASGLDKRDYV [CLDN9, O95484] | below the threshold | below the threshold | below the threshold | below the threshold | below the threshold | below the threshold | below the threshold | below the threshold | below the threshold | below the threshold | 4 | below the threshold | below the threshold | below the threshold | below the threshold | below the threshold | below the threshold | below the threshold | below the threshold | below the threshold | pKd (Inadl_8, Q8NI35): 3.91; pKd (IL16_4, Q14005): below the threshold; pKd (FRMPD3, Q5JV73): below the threshold; pKd (DLG4_2, P78352): below the threshold; pKd (GOPC, Q9HD26): below the threshold; pKd (Inadl_4, Q8NI35): below the threshold; pKd (ARHGAP21, Q5T5U3): below the threshold; pKd (MAGI2_5, Q86UL8): below the threshold; pKd (HTRA1, Q92743): 3.84; pKd (MAGI2_3, Q86UL8): below the threshold; pKd (LNX2_2, Q8N448): 3.92; pKd (LDB3, O75112): below the threshold; pKd (GRIP2_7, Q9C0E4): below the threshold |
| PDSNPEESSV [SEMA4C, Q9C0C4] | below the threshold | 3.99 | below the threshold | below the threshold | 3.54 | below the threshold | below the threshold | below the threshold | 3.57 | 4.3 | 3.56 | 4.37 | 4.46 | below the threshold | below the threshold | below the threshold | 3.91 | below the threshold | below the threshold | below the threshold | pKd (Inadl_8, Q8NI35): 3.66; pKd (IL16_4, Q14005): below the threshold; pKd (FRMPD3, Q5JV73): below the threshold; pKd (DLG4_2, P78352): 4.22; pKd (GOPC, Q9HD26): 3.67; pKd (Inadl_4, Q8NI35): 3.48; pKd (ARHGAP21, Q5T5U3): 4.09; pKd (MAGI2_5, Q86UL8): 3.89; pKd (HTRA1, Q92743): 3.85; pKd (MAGI2_3, Q86UL8): below the threshold; pKd (LNX2_2, Q8N448): below the threshold; pKd (LDB3, O75112): below the threshold; pKd (GRIP2_7, Q9C0E4): below the threshold |
| NPETRDETQL [KCNT1, Q5JUK3] | below the threshold | 3.52 | below the threshold | below the threshold | below the threshold | below the threshold | below the threshold | below the threshold | below the threshold | 3.88 | 3.68 | 4.47 | below the threshold | 4.84 | below the threshold | below the threshold | below the threshold | below the threshold | below the threshold | below the threshold | pKd (Inadl_8, Q8NI35): below the threshold; pKd (IL16_4, Q14005): below the threshold; pKd (FRMPD3, Q5JV73): below the threshold; pKd (DLG4_2, P78352): 3.59; pKd (GOPC, Q9HD26): 3.76; pKd (Inadl_4, Q8NI35): below the threshold; pKd (ARHGAP21, Q5T5U3): 4.02; pKd (MAGI2_5, Q86UL8): 3.75; pKd (HTRA1, Q92743): below the threshold; pKd (MAGI2_3, Q86UL8): 3.52; pKd (LNX2_2, Q8N448): below the threshold; pKd (LDB3, O75112): below the threshold; pKd (GRIP2_7, Q9C0E4): below the threshold |
| SSGSTSSSRI [ADGRG1, Q9Y653] | below the threshold | below the threshold | below the threshold | below the threshold | below the threshold | below the threshold | 3.73 | below the threshold | below the threshold | below the threshold | below the threshold | below the threshold | below the threshold | below the threshold | 3.66 | below the threshold | below the threshold | below the threshold | below the threshold | below the threshold | pKd (Inadl_8, Q8NI35): 3.7; pKd (IL16_4, Q14005): 3.63; pKd (FRMPD3, Q5JV73): below the threshold; pKd (DLG4_2, P78352): 3.6; pKd (GOPC, Q9HD26): 4; pKd (Inadl_4, Q8NI35): below the threshold; pKd (ARHGAP21, Q5T5U3): below the threshold; pKd (MAGI2_5, Q86UL8): below the threshold; pKd (HTRA1, Q92743): below the threshold; pKd (MAGI2_3, Q86UL8): below the threshold; pKd (LNX2_2, Q8N448): below the threshold; pKd (LDB3, O75112): below the threshold; pKd (GRIP2_7, Q9C0E4): below the threshold |
